From PMC10955041, “Reverse-engineering the anti-MUC1 antibody 139H2 by mass spectrometry–based de novo sequencing” (Life Science Alliance, 2024)

Molecular target: T1, full-length MUC1 glycoprotein of HT29-MTX cells (Homo sapiens, HT29-MTX cells, UniProt P15941, VNTR heavily O-linked glycosylated)
T1 construct: Mucin 1 (MUC1), endogenous in the human colon cancer cell line HT29-MTX; band at an estimated 600 kD; written here as one chain; also called Mucin 1; source: endogenous, HT29-MTX lysate (Western blot) and fixed, permeabilized HT29-MTX monolayers (immunofluorescence)
Assay: far-Western, overlay or dot blot; immunoblot of SDS lysates of HT29-MTX and HT29-MTX ΔMUC1 cells on a mucin-SDS gel, PVDF; 139H2 antibodies 1:1,000 in TSMT with 1% BSA, 1 h at RT; detected with anti-mouse IgG
Details: one partner purified

T1 sequence (P15941 24-1255): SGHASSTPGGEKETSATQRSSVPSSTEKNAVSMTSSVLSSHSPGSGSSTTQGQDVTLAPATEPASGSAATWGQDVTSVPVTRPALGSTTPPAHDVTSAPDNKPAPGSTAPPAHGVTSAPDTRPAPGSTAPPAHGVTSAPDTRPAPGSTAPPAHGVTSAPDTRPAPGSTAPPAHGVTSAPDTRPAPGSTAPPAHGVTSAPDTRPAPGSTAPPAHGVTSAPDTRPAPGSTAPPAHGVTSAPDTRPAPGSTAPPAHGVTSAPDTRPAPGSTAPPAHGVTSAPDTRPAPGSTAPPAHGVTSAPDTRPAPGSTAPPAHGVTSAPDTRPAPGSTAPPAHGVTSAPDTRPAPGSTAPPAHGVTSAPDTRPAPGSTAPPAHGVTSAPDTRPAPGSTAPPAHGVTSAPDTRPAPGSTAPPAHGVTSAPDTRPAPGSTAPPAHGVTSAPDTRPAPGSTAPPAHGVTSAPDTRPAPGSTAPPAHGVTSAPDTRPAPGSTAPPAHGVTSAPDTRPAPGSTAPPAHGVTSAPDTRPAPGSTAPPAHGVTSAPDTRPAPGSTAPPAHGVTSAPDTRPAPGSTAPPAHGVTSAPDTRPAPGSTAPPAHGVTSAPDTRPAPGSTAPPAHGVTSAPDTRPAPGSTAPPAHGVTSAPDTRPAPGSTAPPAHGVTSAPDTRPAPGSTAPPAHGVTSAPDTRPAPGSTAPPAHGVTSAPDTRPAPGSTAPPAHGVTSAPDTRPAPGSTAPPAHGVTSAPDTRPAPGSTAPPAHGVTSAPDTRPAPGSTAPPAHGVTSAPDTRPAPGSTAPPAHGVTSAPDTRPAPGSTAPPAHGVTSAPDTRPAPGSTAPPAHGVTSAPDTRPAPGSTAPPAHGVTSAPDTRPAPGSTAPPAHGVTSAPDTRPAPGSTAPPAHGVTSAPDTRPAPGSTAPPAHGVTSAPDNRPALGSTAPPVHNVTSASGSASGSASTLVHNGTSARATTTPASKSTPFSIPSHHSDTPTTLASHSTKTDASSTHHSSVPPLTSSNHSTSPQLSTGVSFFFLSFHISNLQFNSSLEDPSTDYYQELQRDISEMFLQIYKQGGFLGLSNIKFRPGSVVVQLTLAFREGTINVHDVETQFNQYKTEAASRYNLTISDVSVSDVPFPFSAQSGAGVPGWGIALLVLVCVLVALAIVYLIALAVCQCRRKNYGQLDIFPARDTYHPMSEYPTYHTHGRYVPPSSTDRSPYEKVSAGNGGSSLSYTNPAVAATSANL

Binder	binding result
hybridoma-derived 139H2 IgG (antibody, V domains shown, as the heavy-chain variable domain of m1 (IGHV1-53); as the light-chain variable domain of m1 (IGKV8-30); mouse kappa light-chain constant region; Mouse IgG1, kappa; also called original hybridoma-derived 139H2; 139H2 WT; source: hybridoma culture supernatant (gift, NKI), purified (Protein G Sepharose); copies: 2 + 2) VH: QVQLQQSGAELVKPGASVKLSCKASGYTFTNYYMYWVLQRPGQGLEWIGEINPSNGGTTFNEKFKNKATLTVDKSSSTAYMQLNSLTSEDSAVYYCTRSRYGNYVNYGMDYWGQGTSVTVSS VL: DIVMSQSPSSLAVSVGEKVTMSCKSSQSLLYSNTQKNYLAWYQQKPGQSPKLLIYWASTRESGVPDRFTGSGSGTDFTLTISSVKAENLAVYYCQQYYRYPPTFGGGTKLELK	binds
recombinant 139H2 Fab fragment (Fab, V domains shown, as the heavy-chain variable domain of m1 (IGHV1-53); mouse Ig gamma-1 (IGHG1) Fab constant region; as the light-chain variable domain of m1 (IGKV8-30); mouse kappa light-chain constant region, as in m1; also called monovalent Fab fragment; anti-MUC1 Fab; source: HEK293 cells (ImmunoPrecise Antibodies), culture supernatant, purified (HisTrap Excel, Superdex 200 SEC)) VH: QVQLQQSGAELVKPGASVKLSCKASGYTFTNYYMYWVLQRPGQGLEWIGEINPSNGGTTFNEKFKNKATLTVDKSSSTAYMQLNSLTSEDSAVYYCTRSRYGNYVNYGMDYWGQGTSVTVSS VL: DIVMSQSPSSLAVSVGEKVTMSCKSSQSLLYSNTQKNYLAWYQQKPGQSPKLLIYWASTRESGVPDRFTGSGSGTDFTLTISSVKAENLAVYYCQQYYRYPPTFGGGTKLELK	binds
recombinant (reverse-engineered) 139H2 IgG (antibody, V domains shown, also in PDB 8P6I; standard mouse Ig gamma-1 (IGHG1) constant region, linker and Fc region, UniProt P01868.1; mouse kappa light-chain constant region (kappa light-chain backbone); Mouse IgG1, kappa; also called synthetic recombinant 139H2; recombinant 139H2; source: HEK293 cells (ImmunoPrecise Antibodies), culture supernatant, purified (HisTrap Excel); copies: 2 + 2) VH: QVQLQQSGAELVKPGASVKLSCKASGYTFTNYYMYWVLQRPGQGLEWIGEINPSNGGTTFNEKFKNKATLTVDKSSSTAYMQLNSLTSEDSAVYYCTRSRYGNYVNYGMDYWGQGTSVTVSS VL: DIVMSQSPSSLAVSVGEKVTMSCKSSQSLLYSNTQKNYLAWYQQKPGQSPKLLIYWASTRESGVPDRFTGSGSGTDFTLTISSVKAENLAVYYCQQYYRYPPTFGGGTKLELK	binds
